Consider seven molecules from paper PMC2932737, “DNA Clasping by Mtb HU”.

Broadly, the Kd is the constant that tells how readily two partners part at equilibrium.

Series [1] addresses HupBMtb (HU, MDP-1, HLPMt) (Mycobacterium tuberculosis H37Rv) (UniProt P9WMK7). Description: agarose EMSA. The conditions noted are these: scale: fold higher affinity than for linear pBSK.
Series [2] has the same target. Briefly: EMSA. For orientation: A gel shift assay detects complexes by their altered migration in electrophoresis.
Series [3] deals with T1, HupBMtb (HU, MDP-1, HLPMt) (Mycobacterium tuberculosis H37Rv, UniProt P9WMK7 3-216). Description: EMSA; 0-300 nM protein; two complexes. The conditions noted are these: protein: recombinant; tags: His (pET28a, NdeI/HindIII); chain copies: 2; label: 5' 32P; blunt.
T1 sequence (P9WMK7 3-216): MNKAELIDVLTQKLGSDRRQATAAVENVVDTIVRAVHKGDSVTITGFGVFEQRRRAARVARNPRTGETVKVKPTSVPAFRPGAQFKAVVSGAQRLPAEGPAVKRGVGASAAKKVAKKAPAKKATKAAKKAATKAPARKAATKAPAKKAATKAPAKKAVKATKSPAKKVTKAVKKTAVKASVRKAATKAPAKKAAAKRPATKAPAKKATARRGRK
Series [4] deals with T2, HupBMtbN (Mycobacterium tuberculosis H37Rv, UniProt P9WMK7 3-97). Briefly: EMSA; 0-300 nM protein; single complex. The settings on record: protein: recombinant; tags: His (pET28a, NdeI/HindIII); chain copies: 2; label: 5' 32P; blunt.
T2 sequence (P9WMK7 3-97): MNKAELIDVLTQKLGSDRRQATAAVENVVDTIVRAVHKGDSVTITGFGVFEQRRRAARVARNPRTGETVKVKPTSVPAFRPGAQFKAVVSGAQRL
The target in series [5] is T1, HupBMtb (HU, MDP-1, HLPMt). Description: EMSA; 0-300 nM protein; negligible. The settings on record: protein: recombinant; tags: His (pET28a, NdeI/HindIII); chain copies: 2; label: 5' 32P; blunt.
The target of series [6] is T2, HupBMtbN. Description: EMSA; 10 mM KCl. The settings on record: protein: recombinant, tags: His (pET28a, NdeI/HindIII), chain copies: 2, label: 5' 32P, blunt.
Series [7] deals with T1, HupBMtb (HU, MDP-1, HLPMt). Description: EMSA; 200 mM KCl. The settings on record: protein: recombinant, tags: His (pET28a, NdeI/HindIII), chain copies: 2, label: 5' 32P, blunt.
Series [8] deals with T1, HupBMtb (HU, MDP-1, HLPMt). Description: EMSA; 10 mM KCl. The conditions noted are these: protein: recombinant, tags: His (pET28a, NdeI/HindIII), chain copies: 2, label: 5' 32P, blunt.
[9] abbreviates: 48 bp duplex with nick in the lower strand.
Setting [10] is: duplex with 1 nt gap in the lower strand.
Setting [11] is: duplex with 2 nt gap in the lower strand.

Sequence of HupBMtb (HU, MDP-1, HLPMt) (Mycobacterium tuberculosis H37Rv) (P9WMK7 3-216): as the sequence (P9WMK7 3-216) above

In series [1], pBluescript SK supercoiled had a binding signal of 1.5.

Consider “CTCTGTGACTGGTGTGACCTGGGAGAGAGAAGTTTTTTTAAGAACGTT (double strand) [A1 ds DNA (SH_1+SH_2)]”, for which, in series [2], the Kd turned out to be 42 nM.

B1: A7 64% AT DNA (SH_12+SH_13) (dsDNA)
DNA 1: TCAAATCTAATCGGAGTCGTTTTGA
DNA 2: TCAAAACGACTCCGATTAGATTTGA
B1: the binding result in series [3] and in series [4] was “binds” each time.

B2: A6 84% GC DNA (SH_10+SH_11) (dsDNA)
DNA 1: GCCCGGCTGCACCGCGCCACCGCGG
DNA 2: CCGCGGTGGCGCGGTGCAGCCGGGC
With B2, the binding result in series [5] is given as “no binding”.

B3: A2 nick DNA (SH_1+SH_3+SH_4) (structured_DNA)
DNA 1: CTCTGTGACTGGTGTGACCTGGGAGAGAGAAGTTTTTTTAAGAACGTT
DNA 2: TCCCAGGTCACACCAGTCACAGAG
DNA 3: AACGTTCTTAAAAAAACTTCTCTC
For the molecule B3, the Kd in series [6] (setting [9]) worked out at 1000 nM; in series [7] (setting [9]), 65 nM.

B4: A3 1-nt gap DNA (SH_1+SH_3+SH_5) (structured_DNA)
DNA 1: CTCTGTGACTGGTGTGACCTGGGAGAGAGAAGTTTTTTTAAGAACGTT
DNA 2: TCCCAGGTCACACCAGTCACAGAG
DNA 3: AACGTTCTTAAAAAAACTTCTCT
In the case of B4, the Kd in series [6] (setting [10]) is 725 nM; in series [8] (setting [10]), 55 nM.

B5: A4 2-nt gap DNA (SH_1+SH_3+SH_6) (structured_DNA)
DNA 1: CTCTGTGACTGGTGTGACCTGGGAGAGAGAAGTTTTTTTAAGAACGTT
DNA 2: TCCCAGGTCACACCAGTCACAGAG
DNA 3: AACGTTCTTAAAAAAACTTCTC
As for B5, the Kd is 536 nM in series [6] (setting [11]), 60 nM in series [8] (setting [11]) and 88 nM in series [7] (setting [11]).
